The values below come from PMC8811837 (Advanced Science, 2021).

The target in this assay is T1, σ70 (E. coli, UniProt P00579).
T1 construct: also called σR4 (region 4); σ70 R4
As to the kind of experiment: cryo-EM structure. Particulars: both partners purified.

T1 sequence (P00579 whole entry): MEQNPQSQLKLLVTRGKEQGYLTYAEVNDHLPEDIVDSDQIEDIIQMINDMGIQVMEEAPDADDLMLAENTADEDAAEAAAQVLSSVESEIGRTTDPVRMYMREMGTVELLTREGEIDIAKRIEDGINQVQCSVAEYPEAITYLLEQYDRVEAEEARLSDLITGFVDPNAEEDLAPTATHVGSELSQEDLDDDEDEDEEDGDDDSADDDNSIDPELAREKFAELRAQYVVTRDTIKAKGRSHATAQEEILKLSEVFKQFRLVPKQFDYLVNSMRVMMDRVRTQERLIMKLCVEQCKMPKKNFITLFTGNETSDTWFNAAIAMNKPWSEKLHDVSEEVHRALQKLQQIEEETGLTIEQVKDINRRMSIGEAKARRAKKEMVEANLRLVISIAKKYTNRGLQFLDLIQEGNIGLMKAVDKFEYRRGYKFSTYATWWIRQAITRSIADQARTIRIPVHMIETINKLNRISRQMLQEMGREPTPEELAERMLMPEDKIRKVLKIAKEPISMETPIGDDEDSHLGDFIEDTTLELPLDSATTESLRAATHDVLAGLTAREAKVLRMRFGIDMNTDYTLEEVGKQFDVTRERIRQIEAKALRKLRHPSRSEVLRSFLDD

B1: RamA (natural protein)
chain: MTISAQVIDTIVEWIDDNLHQPLRIDDIARHAGYSKWHLQRLFLQYKGESLGRYIRERKLLLAARDLRDTDQRVYDICLKYGFDSQQTFTRVFTRTFNQPPGAYRKENHSRAH
In the case of B1, the binding result is on record as “binds”.
